# Test results as given in patent US20230134571A1 (INTERNATIONAL AIDS VACCINE INITIATIVE, published 2023).
# B1: ePGDM9 (antibody, V domains shown)
# VH: QAQLVQSGPEVRKPGTSVKVSCKNPGNTLTTYDLHWVRQVPGQGLQWMGWISHEGDKKVIVERFKAKVTIDWDRSTNTAYLQLSGLTSEDTAVYYCAKGSKHRLRDYALYDEDGALNWAVDVDYLANLEFWGQGTAVTVSS
# VL: DIVLTQSPLSLSVTPGESASISCKSSQSLIHGDRNNYLAWYVQKPGRSPQLLIDLASERASGVPDRFSGSGSRKDFTLKISRVETEDVGTYYCMQGRESPWTFGQGTKVDIK
# Legend:
# Experiment in all cases: cell-based or functional assay
# HIV Env, isolate 1245045 = HIV Env, isolate 1245045 (HIV)
# [1] = target: HIV Env, isolate CT966_E1-7 (HIV)
# [2] = target: HIV Env, isolate 705010185 (HIV)
# [3] = target: HIV Env, isolate 6631.v3.c10 (HIV)
# [4] = target: HIV Env, isolate CAP330.2.00_F2.41 (HIV)
# [5] = target: HIV Env, isolate CT140_140_B6 (HIV)
# [6] = target: HIV Env, isolate CAP69.1.12_TA7.1 (HIV)
# [7] = target: HIV Env, isolate CT565_C7.48 (HIV)
# [8] = target: HIV Env, isolate 20417927.07 (HIV)
binder,measurement,setting,value
B1,IC50,"HIV Env, isolate 1245045",0.002 µg/mL
same,IC80,"HIV Env, isolate 1245045",0.006 µg/mL
same,IC50,[1],< 0.0006 µg/mL
same,IC80,[1],0.003 µg/mL
same,IC50,[2],0.706 µg/mL
same,IC80,[2],2.15 µg/mL
same,IC50,[3],> 50 µg/mL
same,IC80,[3],> 50 µg/mL
same,IC50,[4],< 0.0006 µg/mL
same,IC80,[4],0.004 µg/mL
same,IC50,[5],0.248 µg/mL
same,IC80,[5],1.83 µg/mL
same,IC50,[6],0.01 µg/mL
same,IC80,[6],0.039 µg/mL
same,IC50,[7],< 0.0006 µg/mL
same,IC80,[7],0.086 µg/mL
same,IC50,[8],0.03 µg/mL
same,IC80,[8],0.679 µg/mL
